Lowest concentration with robust binding data for 1 substance are collected here from patent US20250222112A1.

In the assay the target is soluble ectodomain from HSV-2 glycoprotein D (amino acids 26-331) containing a 6-histidine tag (herpes simplex virus 2 (HSV-2)) (UniProt Q69467). Put plainly: ELISA, gD-6H coated at 15 µg/ml, HSV8 in 5-fold dilutions from 10 µg/ml, anti-human IgG-HRP. For orientation: ELISA stands for enzyme-linked immunosorbent assay.
Chain of UniProt Q69467 (Q69467 26-331, tags left off): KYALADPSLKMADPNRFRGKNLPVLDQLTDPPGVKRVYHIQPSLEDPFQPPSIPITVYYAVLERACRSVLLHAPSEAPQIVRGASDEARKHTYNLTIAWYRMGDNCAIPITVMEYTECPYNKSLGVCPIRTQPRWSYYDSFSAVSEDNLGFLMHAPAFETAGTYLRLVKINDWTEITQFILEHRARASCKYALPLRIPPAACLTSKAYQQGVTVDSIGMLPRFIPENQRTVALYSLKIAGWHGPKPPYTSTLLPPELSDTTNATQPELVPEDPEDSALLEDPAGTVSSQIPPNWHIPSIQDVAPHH

With human IgG1 monoclonal antibody HSV8, the lowest concentration with robust binding came to 3 nM.
